According to patent publication US20230287088A1 (BIONTECH, published 2023):
Substitutions are numbered along the chain they refer to.

B1: P043.A.00023.E05 (antibody, V domains shown)
VH: QSLEESGGRLVTPGTPLTLTCTVSGFSLSSYAMSWVRQAPGKGLEWIGIISSSGSTYYASWAKGRFTISKTSTTVDLKITSPTTEDTATYFCARDASSRGYYYYYGMDPWGPGTLVTVSS
VL: AIQMTQSPSSLAASVGDTVTITCKASEDIGYGLNWYQQKLGIAPKLLIYGANTLESGVPSRFSGSGSETDYTLTISSVQAEDAGIYYCQQGYSTPLTFGAGTKVEIK
notes: also called 443; protein sample ID 443
B2: P043.A.00018.C02 (protein sample ID 450) (antibody, V domains shown)
VH: B1 VH with L3V, S51N, S53G, G54R, S97T, R99I, Y103R
VL: B1 VL
B3: P043.A.00024.C11 (protein sample ID 451) (antibody, V domains shown)
VH: B1 VH with L3V, S55T, R65P, D95G, A96G, S97A, S98G, R99Y, Y102A, Y103H
VL: B1 VL
B4: P043.A.00020.D06 (protein sample ID 444) (antibody, V domains shown)
VH: QSVEESGGRLVTPGTPLTLTCTVSGFSLSSYAMNWVRQAPGKGLEWIGIISSSGSTYYASWAKGRFTISKTSTTVDLKITSPTTEDTATYFCARVGAGYAGYGYDNYYGMDPWGPGTLVTVSS
VL: B1 VL
B5: P043.A.00017.E04 (antibody, V domains shown)
VH: QSVEESGGRLVTPGTPLTLTCTVSGFSLNNYAMNWVRQAPGKGLEWIGIISSSGNTYYANWAKGRFTISKTSTTVDLKITSPTTEDTATYFCARDSYPGYSPYYGMDPWGPGTLVTVSS
VL: B1 VL with G30A, A43T, D70H, S93N, L96P
B6: P043.A.00023.A08 (protein sample ID 446) (antibody, V domains shown)
VH: QSVEESGGRLVTPGTPLTLTCTVSGFSLSKYAMSWVRQAPGKGLEWIGIISSGGSTYYASWAKGRFTISKTSSTTVDLKITSPTTEDTATYFCARAGYPGYSPHYFNIWGPGTLVTVSL
VL: B1 VL with G32E, S63T, L96P
B7: P043.A.00047.H08 (protein sample ID 447) (antibody, V domains shown)
VH: QSLEESGGDLVKPGASLTLTCTASGFSFSSDGMCWVRQAPGKGLEWIACIAAGSSGSTYYATWAQGRFTISKSSSTTVTLQMTSLTAADTATYFCAGEDYTGNNYYALWGPGTLVTVSS
VL: AIDMTQTPSPVSAVVGDTVTINCQASENIYSFLAWYQQKPGQPPKLLIYFASKLASGVPSRFKGSGSGTQFTLTISDVHSDDAAIYYCQQTGTYSDADNTFGGGTEVVVK
notes: also called antibody with the Protein sample ID 447
B8: P043.A.00036.C07 (antibody, V domains shown)
VH: QSLEESGGDLVKPGASLTLTCTASGFSFSSSYWICWVRQAPGKGLEWIGCIYTGSGSTWYASWAKGRFTISKTSSTTVTLQMTSLTAADTATYFCARGYGSYMYDFWGPGTLVTVSS
VL: DVVMTQTPASVEAAVGGTVTIKCQASQSISTALAWYQQKPGQPPKLLIYSASTLESGVPSRFKGSGSGTEFTLAISDLESADAATYYCQGADGSSSSFGGGTEVVVK
notes: also called 448; protein sample ID 448
B9: P043.A.00017.E07 (protein sample ID 449) (antibody, V domains shown)
VH: QSVEESGGRLVTPGTPLTLTCTVSGFSLSSYAMSWVRQAPGKGLEWIGIISSSGSTYYASWAKGRFTISKTSTTVDLKITSPTTEDTATYFCARAMYPGYSTGVYNIWGPGTLVTVSL
VL: B1 VL with G32E, S93N, L96N
B10: P043.A.00032.C04 (antibody, V domains shown)
VH: QSLEESGGRLVTPGTPLTLTCTASGFSLSSYWMSWVRQAPGKGLEWIGIIYVSGSTYYASWAKGRFTISKTSTTVDLKMTSLTTEDTATYFCARVDYSTGWPLFNIWGPGTLVTVSL
VL: AQVLTQTASPVSAAVGGTVTINCQSSQSVYDNNWLGWYQQKPGQPPKLLIYGASILASGVPSRFKGSGSGTQFTLTISDLESDDAATYYCQGGCSGNTFVFGGGTEVVVK
notes: also called 452; protein sample ID 452
B11: P043.A.00109.B12 (antibody, V domains shown)
VH: QSLEESGGGLVKPEGSLTLTCKASGFDLNTYYYMCWVRQAPGKGLEWIACIATSDSGHTAYASWARGRFTISKTSSTTVTLQMTGLTAADTATYFCARGGRSVGDGVDLWGPGTLVTVSS
VL: DIVMTQTPASVEAAVGGTVTIKCQASQSISSWLAWYQQKPGQPPKLLIYDASDLASGVPSRFKGSGSGTEFTLTISDLESADAATYYCQSYLYVESGSHGFGFGGGTEVVVR
notes: also called 468; protein sample ID 468
B12: P043.A.00117.C08 (protein sample ID 469) (antibody, V domains shown)
VH: B11 VH with A52G
VL: B11 VL with S52F, V94G
B13: P043.A.00095.D06 (protein sample ID 470) (antibody, V domains shown)
VH: QEQLEESGGDLVKPEGSLTLTCTASGFSFSSNYWICWVRQAPGKGLEWIGCIYIGSGDTYYASWAKGRFTISKTSSTTVTLQMTSLTAADTATYFCARSYTPGSYYNMNLWGPGTLVTVSS
VL: DVVMTQTPSSVSAAVGGTVTINCQASQQISNELSWYQQKSGQPPKLLIYDASDLASGVPSRFKGSGSGTEFTLTISDLESADAATYYCQSTGGASSDGNAFGGGTEVVVK
notes: also called S1 targeting antibody 470; anti-S1-antibody 470
B14: P043.A.00097.B02 (antibody, V domains shown)
VH: QELVESGGGLVQAGESLKLSCKASGIDFSSYGISWVRQAPGKGLEWIAYIYPGFGITNYANSVKGRFTISSDNAQNTVFLQMTSLTASDTATYFCTRAYASSSGYYIHYFNLWGPGTLVTVSS
VL: B1 VL with G91A
B15: P043.A.00092.C12 (antibody, V domains shown)
VH: QEELKETGGGLVQPGGSLTLSCKASGFDFSSYYMSWVRQAPGKGLEWIGVIYASKGSTDYASWVNGRFTISSDNAQNTVDLQMNSLTAADTATYYCARSKRFYTYGYAGYAYAHYYYGMDLWGPGTLVTVSS
VL: B1 VL with N52D
notes: also called 472; protein sample ID 472
B16: 408: Antibody anti-S1 antibody (LS) (antibody)
heavy: not shown
light: […]

Biological target: SARS-CoV-2 S1 protein (HIS tag, active trimer; Acro Biosystems #SPN-C52H8) (SARS-CoV-2, UniProt P0DTC2 16-1213)
Test: ELISA on coated S active trimer

| Binder | EC50 [ng/mL] |
| --- | --- |
| B1 | 9 |
| B2 | 6.6 |
| B3 | 8.8 |
| B4 | 11.2 |
| B5 | 6.4 |
| B6 | 5.6 |
| B7 | 9.1 |
| B8 | 7.7 |
| B9 | 6.6 |
| B10 | 8.2 |
| B11 | 10 |
| B12 | 7.8 |
| B13 | 6.9 |
| B14 | 6.9 |
| B15 | 10.6 |
| B16 | 25.6 |
